Measurements from the DeepSol protein solubility set.

Assay: soluble on expression in E. coli; label from the status in PepcDB or PDB records

**Q.** For “GMWWYSSIKYSADKVLLDTTRMYYYFINRTPRMEIGRMIAVLSGSFEFSKQYNKEIQERETDDYEVPRLMKQIAGVNDKGKEQPLSQPYALKSRVLLHAYLSRLPLESQNDALEEDQSYIITRILRFVEEMVNCSQNLMNYSQHTKISIETFDNLLKLQPMFVQALWQKNSPLLQLPHITDYNLQHLRKKRVFSCHDLAVMDAETRRSVLRSLSNEEYRDVMVVLSMMPRLQIETKTVVEGEDDKHELTAGCVVTLKVTMRRSRLIDPQEAGLADQYKKYAEDGGDDELEASEAPEEAAATVEEEEVKKRKPWEKNKPKQKKKKAQGQGQKKFVKKNAPASPDTEKALKEE”, which “soluble on expression in E. coli” value is on record?
**A.** not soluble

**Q.** With “GPGSMAEAQARKRTESLSKMYSKTPISEGYALWDREYLLAAMRVFTFKAEGAPPFVLAPYLDSVAEITLQMHDLEDAAEQFAIAAGKYQLIDQKVLADLMRFKVTEVSSSAEIALEQVQAYLAAQDPQANGSGENSTVQTKSAFARVYAYLADLLLRSVDEEQASEAVLAQALTAAELAVQLGWDRDHCGWLLVGDVHAASGNYEKAKEAYGKALQRCPHYAKALERQIGVVQQLVRAADECGDDAGKATLNTELLTLLSRSIEVHPLANTFREKAFLLSEMHGDDAALAFVAETLEHPPQEEIEVIGSSAKEMTSTLLKAKAAILADGNQLDAALEAATKALEVDPNDEEAKSIIRDLHESMAA” as the sequence, how does the “soluble on expression in E. coli” value read?
**A.** soluble

**Q.** Which “soluble on expression in E. coli” value does the source give for “GPGSMAKKEVVWLGTPTEADGSELSSPFTSRIGGSAVLFREAPTYSIFNCPKCRSSRWVSLLTQIYAPLDVYDRIVYVLICSSCSEGKGSFCFAVRSQNFNPSYVQSSPAPVVGGGEDEGITFVEDGDWGDDDPKYVDEGPNEVCITNLTCTTMADECKVGSPTQSTDVSSVLVPHGTKVPVEGFCYPCFVLNIFEEPPKPKLCYGTVPDQLLKAQQTYGEDAVETTVVEDEDEPLAEKLLRKYVDRIGRVPSQCVRWGPGQKPLRSSPAPIVIPRCPRCSNERRYELQLTSPIIYFLTKGKEEKDHSLHFGSVLVYTCGGNCNVQPYSLEHCVVEDEV” here?
**A.** not soluble

**Q.** With “GPGSMASSSTADDHSAVAGIVASSASVCGSRDAAASPPTALPKLGSAKQQRTERAFLFDRYPSRKIALRLAYHGHVHDGLAKQKETDNTVEGLVCDALRRLRLIPEDGPHNFGRCGRTDKGVSALGNAFSLTARASCTGDAEPQLPPLDYCSMLNNVLPSTIRIVGCALVDDAFDARFSCVHRTYRYYFFHRGLNLAAMQEAAAFFLGTHNFRNFCKMDVVNVSNFVRTVFSVGLHPSEALPELISYLEIRANSFLYHQIRCIMEVLFLVGRGLEVPSVVQTLLELGDRKPTYPLADGTPLILWDCGFDNVQWQMSHCAFHAMEQELQDIGTALLIRATSATAMRSQLFRWYTGTADVFRKDTSEKDASGEDRSRAVVRRDPELRRLDGWSITGCDWTDPGTAGQMKARKRDLLYYLRTEAKNGQPLPTTTSCEEKTSQTAETIASGALAPVNYVPLLQRETERTYEEEVRELSGKKRARYEVNEAKKAAAAAAHKEVVSED” as the sequence, how does the “soluble on expression in E. coli” value read?
**A.** not soluble

**Q.** Which “soluble on expression in E. coli” value does the source give for “GPGSMDDKQAFFVRCIDGKTFKMVIRGDLGKLTVGKIRRYLKSYGVQDGMQLLFNGLSLADEQVGSDFGLCNGATLHLGPPSFSEPAVPQRTHGQGFSDEAAGSRTGDPTDTPHSSLSGDSRERNSKADSTHRDPCGGLSHADPARGTATYSGGRYNVDKGIPVTATSATKTNIDRIPSADLTSHSGFPVALEVENQQLREQVELLRREVADLRQKNKAPRATVLRQDLTSIEVLQSAKSNLQELAEELGVPLQFDTNFTCVVGDDESHTVLVTFDCVTERLYIYSTLLTQIPHDGEVRAKLYELLLEGSLLSREVCGGGIGISPQNGLVLLSTTIPLRHCNSSALKDIMPVFVETVARWRSLINELLN” here?
**A.** soluble

**Q.** Which “soluble on expression in E. coli” value does the source give for “GPGSMDESNRVPTGEAPSDEPPLKVRRHEGGHGELRETSSGDTNPQGATLFIRCTSIHGRGELLNGFISEHREALGVAKWYNVAGDESDGRCVPTLRTDAPFECVYVRSSRKPYFLLEFNEKGDVAKKFVEKLVGLRNTLYKGSPVFVEVAKGGLTVATERLKLEKRDAARRSATAVPLSFSSDKPTGPTAFVPRAVRKR” here?
**A.** soluble

**Q.** With “GPGSMDTLTHLSHTLREAMSDIVPESHPEHPFNLIPELCRKFYDLGWATGTGGGISIKMGENYYIAPSGVQKERIKPNEIFVLNASQDVVEEPRTEKQLKISECTPLFFNAYRMRGAGACLHTHSANCVLISLLCDREFRISHIEMIKGIINNETKKALGFRDTLVIPIIENTDFERDLTASMAECMERYPESCAVLVRRHGMYVWSDTWQKAKGAVECIDYLMGLAIRMRTLGLEWEPKDVK” as the sequence, how does the “soluble on expression in E. coli” value read?
**A.** soluble
